The labels stand for the following.
B1: Azoarcus group I ribozyme (parent)
chain: GUGCCUUGCGCCGGGAAACCACGCAAGGGAUGGUGUCAAAUUCGGCGAAACCUAAGCGCCCGCCCGGGCGUAUGGCAACGCCGAGCCAAGCUUCGGCGCCUGCGCCGAUGAAGGUGUAGAGACUAGACGGCACCCACCUAAGGCAAACGCUAUGGUGAAGGCAUAGUCCAGGGAGUGGCGAAAGUCACACAAACCGG

The variants in this series derive from B1. Nature of the series: reverse-splicing fitness (ratio to wild type); higher = more active; in vitro selection; Mg2+ level not given. The method, boiled down:
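An in vitro group I ribozyme library with randomized positions was T7-transcribed and gel-purified. In triplicate, 10 pmol RNA in EPPS pH 7.5 was reacted with 50 pmoles of a 30-nt RNA substrate for 1 h at 37 °C across several added MgCl2 levels (1–48 mM), then stopped with EDTA. Products were reverse transcribed from a substrate-complementary primer, PCR-amplified and sequenced (HiSeq 4000). Fitness is a variant's read proportion after selection over that before, normalised to wild type.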
C82U A111U A120C A145U C150U C169G U176A: the reverse-splicing fitness was 0.011.

C82U A111U A120C A145U C150U C169G U176C: the reverse-splicing fitness worked out at 0.0115.

With C82U A111U A120C A145U C150U C169A U176C, the reverse-splicing fitness turned out to be 0.00781.

On to C82U A111U A120C A145U C150U C169A U176G, for which the reverse-splicing fitness was found to be 0.00505.

Regarding C82U A111U A120C A145U C150U C169A U176A, the reverse-splicing fitness was 0.0119.

Consider C82U A111G C169A U176A, for which the reverse-splicing fitness was found to be 0.0124.

With C82U A111G C169A U176C, the reverse-splicing fitness worked out at 0.0146.

Consider C82U A111G C169A U176G, for which the reverse-splicing fitness came to 0.00438.

For C82U A111G C150A C169U U176C, the reverse-splicing fitness worked out at 0.0161.

C82U A111G C150A C169U U176A: the reverse-splicing fitness is 0.0155.

As for C82U A111G C150A C169U U176G, the reverse-splicing fitness was found to be 0.00684.

As to C82U A111U A120C A145G C150U C169U U176A, the reverse-splicing fitness came to 0.0159.

Turning to C82U A111U A120C A145G C150U C169U U176C, the reverse-splicing fitness turned out to be 0.0155.

As to C82U A111U A120C A145G C150U C169U U176G, the reverse-splicing fitness was found to be 0.00474.

Consider C82U A111G A145U C150G C169U, for which the reverse-splicing fitness came to 0.00901.

With C82U A111G A145U C150G C169A, the reverse-splicing fitness amounted to 0.00869.

Consider C82U A111G A145U C150G C169G, for which the reverse-splicing fitness is 0.00642.

On to C82U A111G A145U C150U C169G, for which the reverse-splicing fitness turned out to be 0.00858.

For the variant C82U A111G A145U C150U C169U, the reverse-splicing fitness is 0.0088.

In the case of C82U A111G A145U C150U C169A, the reverse-splicing fitness is 0.00819.

For the variant C82U A111U A120C A145G C150U C169G, the reverse-splicing fitness turned out to be 0.00811.

Consider C82U A111U A120C A145G C150U C169U, for which the reverse-splicing fitness worked out at 0.0108.

In the case of C82U A111U A120C A145G C150U C169A, the reverse-splicing fitness was found to be 0.00982.

In the case of C82U A111U A120C A145U, the reverse-splicing fitness was found to be 0.0286.

With C82U A111U A120C A145C, the reverse-splicing fitness turned out to be 0.0238.

Take C82U A111U A120C A145G: the reverse-splicing fitness was 0.03.

Turning to C82U A111G C150G U176C, the reverse-splicing fitness turned out to be 0.0178.

Turning to C82U A111G C150G U176G, the reverse-splicing fitness stood at 0.00391.

As to C82U A111G C150G U176A, the reverse-splicing fitness was determined as 0.00888.

With C82U A111U A120C A145C C150G, the reverse-splicing fitness came out at 0.00726.

For C82U A111U A120C A145C C150U, the reverse-splicing fitness came to 0.0119.

For C82U A111U A120C A145C C150A, the reverse-splicing fitness was determined as 0.00788.

Turning to C82U A111U A120C A145C C150A U176G, the reverse-splicing fitness is 0.00471.

For C82U A111U A120C A145C C150A U176A, the reverse-splicing fitness worked out at 0.00819.

For C82U A111U A120C A145C C150A U176C, the reverse-splicing fitness is 0.00753.

As for C82U A111U A120C A145U C150G C169A U176A, the reverse-splicing fitness was determined as 0.00915.

As for C82U A111U A120C A145U C150G C169A U176G, the reverse-splicing fitness stood at 0.0051.

As for C82U A111U A120C A145U C150G C169A U176C, the reverse-splicing fitness was 0.00923.

In the case of C82U A111G A145U C150G C169A U176A, the reverse-splicing fitness turned out to be 0.00927.

Regarding C82U A111G A145U C150G C169A U176G, the reverse-splicing fitness was determined as 0.00561.

On to C82U A111G A145U C150G C169A U176C, for which the reverse-splicing fitness was found to be 0.00932.

For the variant C82U A111U A120C A145G C169G U176A, the reverse-splicing fitness was 0.0152.

In the case of C82U A111U A120C A145G C169G U176G, the reverse-splicing fitness stood at 0.00473.

As for C82U A111U A120C A145G C169G U176C, the reverse-splicing fitness came to 0.0209.

With C82U A111U A120C A145U C150U C169A, the reverse-splicing fitness came out at 0.00828.

With C82U A111U A120C A145U C150U C169U, the reverse-splicing fitness came out at 0.0101.

For C82U A111U A120C A145U C150U C169G, the reverse-splicing fitness worked out at 0.00796.

For C82U A111G C169U U176G, the reverse-splicing fitness was 0.00449.

For the variant C82U A111G C169U U176C, the reverse-splicing fitness stood at 0.0132.

C82U A111G C169U U176A: the reverse-splicing fitness worked out at 0.0145.

For C82U A111G A145G C150U C169G U176A, the reverse-splicing fitness is 0.0169.

For the variant C82U A111G A145G C150U C169G U176G, the reverse-splicing fitness came to 0.00547.

In the case of C82U A111G A145G C150U C169G U176C, the reverse-splicing fitness was 0.0174.

C82U A111U A120C A145U C150A C169U U176G: the reverse-splicing fitness is 0.00498.

As for C82U A111U A120C A145U C150A C169U U176A, the reverse-splicing fitness was 0.0145.

Take C82U A111U A120C A145U C150A C169U U176C: the reverse-splicing fitness came to 0.0156.

For C82U A111U A120C A145C C150U C169U U176G, the reverse-splicing fitness came to 0.00464.

As to C82U A111U A120C A145C C150U C169U U176C, the reverse-splicing fitness was found to be 0.0108.

Regarding C82U A111U A120C A145C C150U C169U U176A, the reverse-splicing fitness turned out to be 0.015.

C82U A111U A120C A145U C150G U176A: the reverse-splicing fitness came to 0.00587.

In the case of C82U A111U A120C A145U C150G U176C, the reverse-splicing fitness amounted to 0.00709.

As to C82U A111U A120C A145U C150G U176G, the reverse-splicing fitness is 0.00331.

As to C82U A111U A120C A145C C169U U176C, the reverse-splicing fitness worked out at 0.0109.

On to C82U A111U A120C A145C C169U U176G, for which the reverse-splicing fitness was found to be 0.00412.

Turning to C82U A111U A120C A145C C169U U176A, the reverse-splicing fitness amounted to 0.013.

For C82U A111U A120C A145G C150G C169G U176G, the reverse-splicing fitness was found to be 0.00574.

As to C82U A111U A120C A145G C150G C169G U176A, the reverse-splicing fitness is 0.00984.

As to C82U A111U A120C A145G C150G C169G U176C, the reverse-splicing fitness is 0.0112.

As for C82U A111G A145U C150U C169G U176A, the reverse-splicing fitness is 0.0118.

In the case of C82U A111G A145U C150U C169G U176C, the reverse-splicing fitness worked out at 0.0105.

Take C82U A111G A145U C150U C169G U176G: the reverse-splicing fitness amounted to 0.00489.

As for C82U A111U A120C A145U C150A C169G, the reverse-splicing fitness stood at 0.00687.

Regarding C82U A111U A120C A145U C150A C169A, the reverse-splicing fitness stood at 0.00772.

With C82U A111U A120C A145U C150A C169U, the reverse-splicing fitness came to 0.00908.

On to C82U A111U A120C A145U C150G C169G U176C, for which the reverse-splicing fitness came out at 0.0054.

For the variant C82U A111U A120C A145U C150G C169G U176G, the reverse-splicing fitness is 0.0048.

With C82U A111U A120C A145U C150G C169G U176A, the reverse-splicing fitness amounted to 0.00657.

As for C82U A111G C150A C169A, the reverse-splicing fitness worked out at 0.00969.

Take C82U A111G C150A C169G: the reverse-splicing fitness is 0.00918.

Turning to C82U A111G C150A C169U, the reverse-splicing fitness turned out to be 0.00979.

Take C82U A111U A120C A145C C150G C169U U176A: the reverse-splicing fitness is 0.0108.

With C82U A111U A120C A145C C150G C169U U176G, the reverse-splicing fitness was 0.00477.

For C82U A111U A120C A145C C150G C169U U176C, the reverse-splicing fitness was 0.0116.

Turning to C82U A111G A145G C150U U176G, the reverse-splicing fitness worked out at 0.0312.

The record behind these values is the RNAGym collection of RNA variant scans (doi:10.1093/molbev/msab373).
